From patent US20200024330A1

Legend:
[1] = target: JR-FL gp120 ΔV3 (HIV-1 (isolate JR-FL)); test: ELISA on coated gp120; EC50 by nonlinear regression
[2] = target: Env of the clade AE HIV-1 pseudoviruses of the cross-clade 162-pseudovirus panel (n = 10); test: cell-based or functional assay
[3] = target: HIV-1 APV6 envelope glycoprotein (Env) (HIV-1); test: cell-based or functional assay
[4] = target: HIV-1 Env of isolate MGRM-AE-002 (HIV-1); test: cell-based or functional assay
[5] = target: HIV-1 Env of isolate VLGCA1 (HIV-1); test: cell-based or functional assay
[6] = target: HIV-1 Env of isolate MGRM-A-014 (HIV-1); test: cell-based or functional assay
[7] = target: HIV-1 Env of isolate MGRM-A-003 (HIV-1); test: cell-based or functional assay
[8] = target: HIV-1 Env of isolate 92WR009 (HIV-1); test: cell-based or functional assay
[9] = target: HIV-1 93UG077 envelope glycoprotein (Env) (HIV-1); test: cell-based or functional assay
[10] = target: HIV-1 Env of isolate MGRM-A-002 (HIV-1); test: cell-based or functional assay
[11] = target: HIV-1 Env of isolate 92WR024 (HIV-1); test: cell-based or functional assay
[12] = target: HIV-1 Env of isolate 94UG103 (HIV-1); test: cell-based or functional assay
[13] = target: HIV-1 MGRM-C-028 envelope glycoprotein (Env) (HIV-1); test: cell-based or functional assay
[14] = target: HIV-1 Env of isolate 92WR021 (HIV-1); test: cell-based or functional assay
[15] = target: HIV-1 Env of isolate 92UG031 (HIV-1); test: cell-based or functional assay
[16] = target: HIV-1 Env of isolate 94KE105 (HIV-1); test: cell-based or functional assay
[17] = target: HIV-1 MGRM-C-027 envelope glycoprotein (Env) (HIV-1); test: cell-based or functional assay
[18] = target: HIV-1 92BR020 envelope glycoprotein (Env) (HIV-1); test: cell-based or functional assay
[19] = target: HIV-1 Env of isolate MGRM-A-013 (HIV-1); test: cell-based or functional assay
[20] = target: HIV-1 Env of isolate MGRM-A-006 (HIV-1); test: cell-based or functional assay
[21] = target: HIV-1 Env of isolate MGRM-AE-003 (HIV-1); test: cell-based or functional assay
[22] = target: HIV-1 93IN905 envelope glycoprotein (Env) (HIV-1); test: cell-based or functional assay
[23] = target: HIV-1 94UG103 envelope glycoprotein (Env) (HIV-1); test: cell-based or functional assay
[24] = target: HIV-1 Env of isolate 93WR029 (HIV-1); test: cell-based or functional assay
[25] = target: HIV-1 NL43 envelope glycoprotein (Env) (HIV-1); test: cell-based or functional assay
[26] = target: HIV-1 Env of isolate CMU02 (HIV-1); test: cell-based or functional assay
[27] = target: HIV-1 Env of isolate MGRM-A-011 (HIV-1); test: cell-based or functional assay
[28] = target: HIV-1 APV17 envelope glycoprotein (Env) (HIV-1); test: cell-based or functional assay
[29] = target: HIV-1 MGRM-A-010 envelope glycoprotein (Env) (HIV-1); test: cell-based or functional assay
[30] = target: HIV-1 APV13 envelope glycoprotein (Env) (HIV-1); test: cell-based or functional assay
[31] = target: HIV-1 Env of isolate 92RW008 (HIV-1); test: cell-based or functional assay
[32] = target: HIV-1 JRCSF envelope glycoprotein (Env) (HIV-1) (UniProt P20871); test: cell-based or functional assay
[33] = target: HIV-1 Env of isolate 92BR020 (HIV-1); test: cell-based or functional assay
[34] = target: HIV-1 92RW020 envelope glycoprotein (Env) (HIV-1); test: cell-based or functional assay
[35] = target: HIV-1 Env of isolate MGRM-A-005 (HIV-1); test: cell-based or functional assay
[36] = target: HIV-1 Env of isolate 92UG037 (HIV-1); test: cell-based or functional assay
[37] = target: HIV-1 Env of isolate 92WR026 (HIV-1); test: cell-based or functional assay
[38] = target: HIV-1 Env of isolate MGRM-A-007 (HIV-1); test: cell-based or functional assay
[39] = target: HIV-1 Env of isolate MGRM-A-012 (HIV-1); test: cell-based or functional assay
[40] = target: HIV-1 Env of isolate MGRM-AE-001 (HIV-1); test: cell-based or functional assay

B1: PGT-128 (antibody, V domains shown)
VH: QPQLQESGPTLVEASETLSLTCAVSGDSTAACNSFWGWVRQPPGKGLEWVGSLSHCASYWNRGWTYHNPSLKSRLTLALDTPKNLVFLKLNSVTAADTATYYCARFGGEVLRYTDWPKPAWVDLWGRGTLVTVSS
VL: QSALTQPPSASGSPGQSITISCTGTSNNFVSWYQQHAGKAPKLVIYDVNKRPSGVPDRFSGSKSGNTASLTVSGLQTDDEAVYYCGSLVGNWDVIFGGGTKLTVL
B1 showed an EC50 [1] of 7.8 µg/mL and a Median IC50 against viruses neutralized with an IC50 <50 µg/ml [2] of 0.05 µg/mL.

B2: PGT-123 (antibody, V domains shown)
VH: QLHLQESGPGLVKPPETLSLTCSVSGASINDAYWSWIRQSPGKRPEWVGYVHHSGDTNYNPSLKRRVTFSLDTAKNEVSLKLVDLTAADSATYFCARALHGKRIYGIVALGELFTYFYMDVWGKGTAVTVSS
VL: SSMSVSPGETAKISCGKESIGSRAVQWYQQKPGQPPSLIIYNNQDRPAGVPERFSASPDFRPGTTATLTITNVDAEDEADYYCHIYDARGGTNWVFDRGTTLTVL
B2 showed an IC50 neutralization [3] of 0.0328 µg/mL, an IC50 (µg/mL), pseudovirus neutralization [4] greater than 50 µg/mL and an IC50 (µg/mL), pseudovirus neutralization [5] greater than 50 µg/mL. For the same binder, the IC50 (µg/mL), pseudovirus neutralization [6] was 0.003 µg/mL, the IC50 (µg/mL), pseudovirus neutralization [7] was 0.495 µg/mL and the IC50 (µg/mL), pseudovirus neutralization [8] was 15.7 µg/mL. The IC50 neutralization [9] was 0.0303 µg/mL, the IC50 (µg/mL), pseudovirus neutralization [10] was 0.011 µg/mL and the IC50 (µg/mL), pseudovirus neutralization [11] was greater than 50 µg/mL. The IC50 (µg/mL), pseudovirus neutralization [12] was 0.678 µg/mL, the Primary Neutralization Index (B cell culture well 4858 P8) [12] was 1.1 and the IC50 neutralization [13] was 0.443 µg/mL. It also gave an IC50 (µg/mL), pseudovirus neutralization [14] of 0.005 µg/mL, an IC50 (µg/mL), pseudovirus neutralization [15] greater than 50 µg/mL and an IC50 (µg/mL), pseudovirus neutralization [16] of 0.024 µg/mL. The IC50 neutralization [17] was 0.0169 µg/mL, the IC50 neutralization [18] was 0.013 µg/mL and the IC50 (µg/mL), pseudovirus neutralization [19] was 0.565 µg/mL. The IC50 (µg/mL), pseudovirus neutralization [20] was greater than 50 µg/mL, the IC50 (µg/mL), pseudovirus neutralization [21] was greater than 50 µg/mL and the IC50 neutralization [22] was 0.0071 µg/mL. For the same binder, the IC50 neutralization [23] was 0.846 µg/mL, the IC50 (µg/mL), pseudovirus neutralization [24] was greater than 50 µg/mL and the IC50 neutralization [25] was greater than 10 µg/mL. The IC50 (µg/mL), pseudovirus neutralization [26] was greater than 50 µg/mL, the IC50 (µg/mL), pseudovirus neutralization [27] was greater than 50 µg/mL and the IC50 neutralization [28] was 0.18 µg/mL. For the same binder, the IC50 neutralization [29] was 0.492 µg/mL, the IC50 neutralization [30] was 0.222 µg/mL and the IC50 (µg/mL), pseudovirus neutralization [31] was 0.003 µg/mL. For the same binder, the IC50 neutralization [32] was 0.0423 µg/mL, the Primary Neutralization Index (B cell culture well 4858 P8) [33] was 2.8 and the IC50 neutralization [34] was 0.0038 µg/mL. The IC50 (µg/mL), pseudovirus neutralization [35] was greater than 50 µg/mL, the IC50 (µg/mL), pseudovirus neutralization [36] was 0.023 µg/mL and the IC50 (µg/mL), pseudovirus neutralization [37] was 0.012 µg/mL. It also gave an IC50 (µg/mL), pseudovirus neutralization [38] greater than 50 µg/mL, an IC50 (µg/mL), pseudovirus neutralization [39] of 0.192 µg/mL and an IC50 (µg/mL), pseudovirus neutralization [40] greater than 50 µg/mL.
